Experimental data: patent US20170260289A1 (Novo Nordisk, published 2017)

Legend:
Assay in all cases: cell-based or functional assay
[1] = molecular target: T1, human TFPI alpha (full-length TFPIα) (human, UniProt P10646 29-304)
[2] = molecular target: T2, endogenous TFPI of human plasma (human, UniProt P10646 29-304, limits assumed)
[3] = molecular target: T1, human TFPI alpha (full-length TFPIα); remark: listed apart in the source
[4] = molecular target: T1, human TFPI alpha (full-length TFPIα); remark: listed apart in the source
[5] = molecular target: T2, endogenous TFPI of human plasma; remark: listed apart in the source

Peak (nM); thrombin generation, FVIII-neutralised plasma + 10 nM TFPIα; 10 nM Fab [1]	Peak (nM); thrombin generation, FVIII-neutralised plasma + 10 nM TFPIα; 50 nM Fab [1]	Peak (nM); thrombin generation, FVIII-neutralised plasma + 10 nM TFPIα; 100 nM Fab [1]	ttPeak (min); thrombin generation, FVIII-neutralised plasma + 10 nM TFPIα; 10 nM Fab [1]	ttPeak (min); thrombin generation, FVIII-neutralised plasma + 10 nM TFPIα; 50 nM Fab [1]	ttPeak (min); thrombin generation, FVIII-neutralised plasma + 10 nM TFPIα; 100 nM Fab [1]	Peak (nM); thrombin generation, FVIII-neutralised plasma, endogenous TFPI; 10 nM Fab [2]	Peak (nM); thrombin generation, FVIII-neutralised plasma, endogenous TFPI; 50 nM Fab [2]	Peak (nM); thrombin generation, FVIII-neutralised plasma, endogenous TFPI; 100 nM Fab [2]	ttPeak (min); thrombin generation, FVIII-neutralised plasma, endogenous TFPI; 10 nM Fab [2]	ttPeak (min); thrombin generation, FVIII-neutralised plasma, endogenous TFPI; 50 nM Fab [2]	ttPeak (min); thrombin generation, FVIII-neutralised plasma, endogenous TFPI; 100 nM Fab [2]	Peak (nM); thrombin generation, FVIII-neutralised plasma + 20 nM TFPIα; 200 nM antibody [3]	ttPeak (min); thrombin generation, FVIII-neutralised plasma + 20 nM TFPIα; 200 nM antibody [3]	Binder	also measured
12.7 nM	42.9 nM	54.2 nM	29 min	21.2 min	20.2 min	85.6 nM	85.2 nM	90.2 nM	11.5 min	11.6 min	11.6 min			Fab 0088 (Fab, V domains shown) VH: EVQLVESGGGLVKPGGSLRLSCAASGFTFSNYAMSWVRQTPEKRLEWVATISRSGSYSYFPDSVQGRFTISRDNAKNSLYLQMNSLRAEDTAVYYCARLGGYDEGDAMDSWGQGTTVTVSS VL: DIVMTQTPLSLSVTPGQPASISCKSSQSLLESDGKTYLNWYLQKPGQSPQLLIYLVSILDSGVPDRFSGSGSGTDFTLKISRVEAEDVGVYYCLQATHFPQTFGGGTKVEIKR	
0.4 nM	0.8 nM	1.4 nM	106 min	76.2 min	48.1 min	10 nM	19.8 nM	29.6 nM	21 min	10.2 min	8.9 min			Fab 0313 (Fab, V domains shown) VH: EVQLVESGGGLVKPGGSLRLSCAASGFTFSNYAMSWVRQAPGKGLEWVSTISRSGSYSYYADSVKGRFTISRDNAKNSLYLQMNSLRAEDTAVYYCARLGGYDEGDAMDSWGQGTTVTVSS VL: DIVMTQTPLSLSVTPGQPASISCKSSQSLLESDGKTYLNWYLQKPGQSPQLLIYLVSILDSGVPDRFSGSGSGTDFTLKISRVEAEDVGVYYCLQATHFPQTFGGGTKVEIKR	
												23.7 nM	13.6 min	mAb 2F22 (antibody, IgG1, V domains shown) VH: QVQLKQSGPGLVQPSQSLSITCTVSGFSLTNYGVHWVRQSPGKGLEWLAVIWRGGSIDYNAAFMSRLSITKDNSKSQVFFKMNSLQADDTAIYYCAKNSHGNYVGYAMDYWGQGTSVTVSS VL: GIVMTQSQKFMSTTVGDRVSITCKASQSVGPAVAWYQQKPGQSPKLLIYSASNRYTGVPDRFTGSGSGADFTLTISNLHSEDLADYFCQQYTSYPTFGGGTKLEIKR	

Further lines, the binder ahead of its results:

Binder	Peak (nM); thrombin generation, FVIII-neutralised plasma + 10 nM TFPIα; 10 nM Fab [1]	Peak (nM); thrombin generation, FVIII-neutralised plasma + 10 nM TFPIα; 50 nM Fab [1]	Peak (nM); thrombin generation, FVIII-neutralised plasma + 10 nM TFPIα; 100 nM Fab [1]	ttPeak (min); thrombin generation, FVIII-neutralised plasma + 10 nM TFPIα; 10 nM Fab [1]	ttPeak (min); thrombin generation, FVIII-neutralised plasma + 10 nM TFPIα; 50 nM Fab [1]	ttPeak (min); thrombin generation, FVIII-neutralised plasma + 10 nM TFPIα; 100 nM Fab [1]	Peak (nM); thrombin generation, FVIII-neutralised plasma, endogenous TFPI; 10 nM Fab [2]	Peak (nM); thrombin generation, FVIII-neutralised plasma, endogenous TFPI; 50 nM Fab [2]	Peak (nM); thrombin generation, FVIII-neutralised plasma, endogenous TFPI; 100 nM Fab [2]	ttPeak (min); thrombin generation, FVIII-neutralised plasma, endogenous TFPI; 10 nM Fab [2]	ttPeak (min); thrombin generation, FVIII-neutralised plasma, endogenous TFPI; 50 nM Fab [2]	ttPeak (min); thrombin generation, FVIII-neutralised plasma, endogenous TFPI; 100 nM Fab [2]	Peak (nM); thrombin generation, FVIII-neutralised plasma + 20 nM TFPIα; 200 nM antibody [3]	ttPeak (min); thrombin generation, FVIII-neutralised plasma + 20 nM TFPIα; 200 nM antibody [3]	also measured
mAb 2021 (antibody, IgG4, V domains shown) VH: EVQLVESGGGLVKPGGSLRLSCAASGFTFSNYAMSWVRQTPEKRLEWVATISRSGSYSYFPDSVQGRFTISRDNAKNSLYLQMNSLRAEDTAVYYCARLGGYDEGDAMDSWGQGTTVTVSS VL: DIVMTQTPLSLSVTPGQPASISCKSSQSLLESDGKTYLNWYLQKPGQSPQLLIYLVSILDSGVPDRFSGSGSGTDFTLKISRVEAEDVGVYYCLQATHFPQTFGGGTKVEIKR													17.2 nM	26.2 min	
mAb 0310 (antibody, human IgG1, kappa, V domains shown) VH: EVQLVESGGGLVKPGGSLRLSCAASGFTFSNYAMSWVRQTPEKRLEWVATISRSGSYSYFPDSVQGRFTISRDNAKNSLYLQMNSLRAEDTAVYYCARLGGYDEGDAMDSWGQGTTVTVSS VL: DIVMTQTPLSLSVTPGQPASISCKSSQSLLESDGKTYLNWYLQKPGQSPQLLIYLVSILDSGVPDRFSGSGSGTDFTLKISRVEAEDVGVYYCLQATHFPQTFGGGTKVEIKR															Peak (nM); thrombin generation, FVIII-neutralized plasma + 10 nM TFPI alpha; 100.0 nM mAb [4]: 28.3 nM; ttPeak (min); thrombin generation, FVIII-neutralized plasma + 10 nM TFPI alpha; 100.0 nM mAb [4]: 24.5 min; Peak (nM); thrombin generation, FVIII-neutralized plasma, no TFPI added; 10.0 nM mAb [5]: 118 nM; ttPeak (min); thrombin generation, FVIII-neutralized plasma, no TFPI added; 10.0 nM mAb [5]: 8.5 min
Fab 0295 (Fab, V domains shown) VH: QVQLKQSGPGLVQPSQSLSITCTVSGFSLTNYGVHWVRQSPGKGLEWLAVIWRGGSIDYNAAFMSRLSITKDNSKSQVFFKMNSLQADDTAIYYCAKNSHGNYVGYAMDYWGQGTSVTVSS VL: GIVMTQSQKFMSTTVGDRVSITCKASQSVGPAVAWYQQKPGQSPKLLIYSASNRYTGVPDRFTGSGSGADFTLTISNLHSEDLADYFCQQYTSYPTFGGGTKLEIKR	10.9 nM	31.8 nM	33.8 nM	25.2 min	11.5 min	10.8 min	94 nM	101 nM	103 nM	8.4 min	8.2 min	8.2 min			
mAb 2F3 (antibody, IgG1, V domains shown) VH: QVQLKQSGPGLVQPSQSLSITCTVSGFSLSSYGVHWVRQSPGKGLEWLGVIWRGGSTDFNAAFMSRVSFTKDNSKSQVFFKMNSLQADDTAIYYCAKNSHGNYVGYAMDYWGQGTSVTVSS VL: DIVMTQSQKFMSTTVGDKVSIPCKASENVGAAVAWYQQKPGQSPTLLIYSASNRYTGIPDRFTGSGSGTDFTLTIRTVQSEDLADYFCQQYTNYPTFGGGTKLEIKR													20.9 nM	14.6 min	
mAb 0336 (antibody, human IgG1, kappa, V domains shown) VH: QVQLKQSGPGLVQPSQSLSITCTVSGFSLTNYGVHWVRQSPGKGLEWLAVIWRGGSIDYNAAFMSRLSITKDNSKSQVFFKMNSLQADDTAIYYCAKNSHGNYVGYAMDYWGQGTSVTVSS VL: GIVMTQSQKFMSTTVGDRVSITCKASQSVGPAVAWYQQKPGQSPKLLIYSASNRYTGVPDRFTGSGSGADFTLTISNLHSEDLADYFCQQYTSYPTFGGGTKLEIKR															Peak (nM); thrombin generation, FVIII-neutralized plasma + 10 nM TFPI alpha; 100.0 nM mAb [4]: 44.9 nM; ttPeak (min); thrombin generation, FVIII-neutralized plasma + 10 nM TFPI alpha; 100.0 nM mAb [4]: 11.7 min; Peak (nM); thrombin generation, FVIII-neutralized plasma, no TFPI added; 10.0 nM mAb [5]: 140 nM; ttPeak (min); thrombin generation, FVIII-neutralized plasma, no TFPI added; 10.0 nM mAb [5]: 7.8 min
mAb 1F91 (antibody, IgG1, V domains shown) VH: DVQLQESGPGLVKPSQSLSLTCTVSGYSITSDYAWNWIRQFPGNKLEWMGYISYSGSTSYNPSLKSRISITRDTSKNQFFLQLNSVTTEDTATYYCARWAYDGPWGQGTLVTVSA VL: QIVLSQSPALLSASPGEKVTMTCRASSSVSHMHWYQQKPGSSPKPWIYATSNLASGVPARFSGSGSGTSYSLTITRVEAEDAATYYCQQWSSNPFTFGSGTKLEIKR													0 nM		
